This note sets out measurements from patent US20240043549A1 (ALS THERAPY DEVELOPMENT INSTITUTE, published 2024).

Holding throughout (experiment): solid phase ELISA, antibody coated, FCGR titrated
For experiment [1], the target named is T1, low affinity immunoglobulin gamma fc region receptor IIA (FCGR2A) (CD32) (human, UniProt P12318 34-217).
T1 construct: Bought recombinant human protein (Santa Cruz Biotechnology); also called FCGR2A receptor
T1 sequence: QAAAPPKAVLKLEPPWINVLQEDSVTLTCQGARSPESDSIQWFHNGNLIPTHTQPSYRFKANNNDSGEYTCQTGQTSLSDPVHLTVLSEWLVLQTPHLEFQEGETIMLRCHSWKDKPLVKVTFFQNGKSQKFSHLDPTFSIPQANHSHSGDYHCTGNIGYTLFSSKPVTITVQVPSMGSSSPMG

In experiment [2] the target is T2, low affinity immunoglobulin gamma fc region receptor IIIA (FCGR3A) (CD16a) (human, UniProt P08637 17-208).
T2 construct: Bought recombinant human protein (Santa Cruz Biotechnology); also called FCR3A

The target of experiment [3] is T3, low affinity immunoglobulin gamma fc region receptor IIIB (FCGR3B) (CD16b) (human, UniProt O75015 17-200).
T3 construct: Bought recombinant human protein (Santa Cruz Biotechnology); also called FCR3B
T3 chain: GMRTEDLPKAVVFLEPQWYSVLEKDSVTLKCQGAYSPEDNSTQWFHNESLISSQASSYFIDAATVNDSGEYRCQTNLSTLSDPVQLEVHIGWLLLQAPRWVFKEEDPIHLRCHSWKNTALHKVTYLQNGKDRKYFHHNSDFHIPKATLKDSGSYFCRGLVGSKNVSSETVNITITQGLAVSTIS

Experiment [4] deals with T4, high affinity Fc region of IgG receptor IA (FCGR1A) (CD64) (human, UniProt P12314 16-292).
T4 construct: Bought recombinant human protein (Santa Cruz Biotechnology)
T4 sequence (P12314 16-292 limits assumed): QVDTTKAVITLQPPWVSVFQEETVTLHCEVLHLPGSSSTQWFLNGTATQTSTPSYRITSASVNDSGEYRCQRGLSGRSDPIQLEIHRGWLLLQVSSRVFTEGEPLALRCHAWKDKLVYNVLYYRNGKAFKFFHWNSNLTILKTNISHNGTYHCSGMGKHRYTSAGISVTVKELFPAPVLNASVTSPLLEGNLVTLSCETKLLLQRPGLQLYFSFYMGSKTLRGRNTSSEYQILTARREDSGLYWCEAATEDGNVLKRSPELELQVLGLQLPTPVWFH

T2 sequence (P08637 17-208 limits assumed): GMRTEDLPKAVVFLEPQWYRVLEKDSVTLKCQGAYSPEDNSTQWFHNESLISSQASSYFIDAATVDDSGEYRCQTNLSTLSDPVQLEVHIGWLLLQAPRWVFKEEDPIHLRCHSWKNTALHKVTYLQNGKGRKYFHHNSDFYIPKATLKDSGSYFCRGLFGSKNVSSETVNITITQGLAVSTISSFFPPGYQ

B1: JB5 antibody (antibody)
heavy: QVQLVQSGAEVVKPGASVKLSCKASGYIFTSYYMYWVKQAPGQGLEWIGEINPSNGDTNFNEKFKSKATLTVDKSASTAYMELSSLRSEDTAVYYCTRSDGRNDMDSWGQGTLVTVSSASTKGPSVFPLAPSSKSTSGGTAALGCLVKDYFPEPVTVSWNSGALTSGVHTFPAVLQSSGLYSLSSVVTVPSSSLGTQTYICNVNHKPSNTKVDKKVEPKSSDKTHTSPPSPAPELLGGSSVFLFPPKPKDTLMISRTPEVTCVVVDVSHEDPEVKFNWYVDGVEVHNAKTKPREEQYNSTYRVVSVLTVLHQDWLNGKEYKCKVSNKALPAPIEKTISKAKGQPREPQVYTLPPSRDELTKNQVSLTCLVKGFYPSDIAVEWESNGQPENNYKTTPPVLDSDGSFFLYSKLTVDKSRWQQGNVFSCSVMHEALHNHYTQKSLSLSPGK
light: DIVLTQSPATLSVSPGERATISCRASQRVSSSTYSYMHWYQQKPGQPPKLLIKYASNLESGVPARFSGSGSGTDFTLTISSVEPEDFATYYCQHSWEIPPTFGGGTKLEIKRTVAAPSVFIFPPSDEQLKSGTASVVCLLNNFYPREAKVQWKVDNALQSGNSQESVTEQDSKDSTYSLSSTLTLSKADYEKHKVYACEVTHQGLSSPVTKSFNRGEC
notes: The text mostly prints the name as 'JBS'; also called JBS (OCR spelling of JB5 in the text); mutant JBS antibody
Turning to B1, the binding result in experiment [1], in experiment [2], in experiment [3] and in experiment [4] was “no binding (tested: FCGR titrated from 5 µg/ml)” each time.

B2: hu5c8 antibody (antibody, human IgG1)
heavy: not shown
VL: DIVLTQSPATLSVSPGERATISCRASQRVSSSTYSYMHWYQQKPGQPPKLLIKYASNLESGVPARFSGSGSGTDFTLTISSVEPEDFATYYCQHSWEIPPTFGGGTKLEIK
notes: Humanized 5c8, IgG1; no full light chain entry is named for it; also called parental antibody hu5c8; hu5c8-IgG1
In the case of B2, the binding result in experiment [2] and in experiment [3] was “no binding (tested: FCGR titrated from 5 µg/ml)” each time.
